T1: FcγRIIa H (FcγRIIa type H, His at position 131), extracellular domain with C-terminal His tag (human, UniProt P12318 34-217)
T1 construct: extracellular domain; also called 2aH; FcgRIIa H; not shown: His tag at the C terminus
T1 sequence (looked up): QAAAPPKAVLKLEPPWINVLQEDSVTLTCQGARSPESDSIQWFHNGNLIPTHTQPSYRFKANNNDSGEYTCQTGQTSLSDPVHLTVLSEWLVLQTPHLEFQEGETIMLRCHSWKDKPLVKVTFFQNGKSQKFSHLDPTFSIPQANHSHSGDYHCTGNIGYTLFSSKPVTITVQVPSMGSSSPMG

T2: FcγRIIb extracellular domain with C-terminal His tag (human, UniProt P31994 43-217)
T2 construct: extracellular domain; also called FcgRIIb; 2b; not shown: His tag at the C terminus
T2 sequence (looked up): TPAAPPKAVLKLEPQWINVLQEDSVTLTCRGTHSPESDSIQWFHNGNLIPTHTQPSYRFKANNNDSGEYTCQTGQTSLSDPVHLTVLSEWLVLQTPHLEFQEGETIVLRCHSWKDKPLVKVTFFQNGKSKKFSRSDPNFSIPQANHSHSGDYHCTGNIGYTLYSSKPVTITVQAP

T3: FcγRIIb, extracellular domain with C-terminal His tag (human, UniProt P31994 43-217)
T3 construct: extracellular domain; also called 2b; FcgRIIb; not shown: His tag at the C terminus
T3 sequence (looked up): T2 sequence (looked up)

B1: GpH7-A5/GpH7-B3 variant V266_01G/GpL16-k0 (antibody, human IgG1, kappa)
heavy 1: not shown
heavy 2: not shown
light: DIVMTQSPLSLPVTPGEPASISCQASESLVHSNRNTYLHWYLQKPGQSPQLLIYKVSNRFSGVPDRFSGSGSGTDFTLKISRVEAEDVGVYYCSQNTHVPPTFGQGTKVEIERTVAAPSVFIFPPSDEQLKSGTASVVCLLNNFYPREAKVQWKVDNALQSGNSQESVTEQDSKDSTYSLSSTLTLSKADYEKHKVYACEVTHQGLSSPVTKSFNRGEC
notes: Heterodimerized IgG1 (He Ab); mutation only in the GpH7-B3 chain; also called He Ab V266G
B2: GpH7-A5/GpH7-B3 variant S239_20W/GpL16-k0 (antibody, human IgG1, kappa)
heavy 1: not shown
heavy 2: not shown
light: B1 light
notes: Heterodimerized IgG1 (He Ab); mutation only in the GpH7-B3 chain; also called He Ab S239W
B3: GpH7-A5/GpH7-B3 variant S239_08L/GpL16-k0 (antibody, human IgG1, kappa)
heavy 1: not shown
heavy 2: not shown
light: B1 light
notes: Heterodimerized IgG1 (He Ab); mutation only in the GpH7-B3 chain; also called He Ab S239L
B4: GpH7-A5/GpH7-B3 variant V266_04F/GpL16-k0 (antibody, human IgG1, kappa)
heavy 1: not shown
heavy 2: not shown
light: B1 light
notes: Heterodimerized IgG1 (He Ab); mutation only in the GpH7-B3 chain; also called He Ab V266F
B5: GpH7-A5/GpH7-B3 variant S239_10E/GpL16-k0 (antibody, human IgG1, kappa)
heavy 1: not shown
heavy 2: not shown
light: B1 light
notes: Heterodimerized IgG1 (He Ab); mutation only in the GpH7-B3 chain; also called He Ab S239E
B6: GpH7-A5/GpH7-B3 variant S239_18N/GpL16-k0 (antibody, human IgG1, kappa)
heavy 1: not shown
heavy 2: not shown
light: B1 light
notes: Heterodimerized IgG1 (He Ab); mutation only in the GpH7-B3 chain; also called He Ab S239N
B7: GpH7-A5/GpH7-B3 variant S239_09D/GpL16-k0 (antibody, human IgG1, kappa)
heavy 1: not shown
heavy 2: not shown
light: B1 light
notes: Heterodimerized IgG1 (He Ab); mutation only in the GpH7-B3 chain; also called He Ab S239D
B8: GpH7-A5/GpH7-B3 variant S239_05P/GpL16-k0 (antibody, human IgG1, kappa)
heavy 1: not shown
heavy 2: not shown
light: B1 light
notes: Heterodimerized IgG1 (He Ab); mutation only in the GpH7-B3 chain; also called He Ab S239P
B9: GpH7-A5/GpH7-B3 variant D270_01G/GpL16-k0 (antibody, human IgG1, kappa)
heavy 1: not shown
heavy 2: not shown
light: B1 light
notes: He Ab: the mutation stands only in the GpH7-B3-derived H chain; also called He Ab D270G
B10: GpH7-A5/GpH7-B3 variant D270_06M/GpL16-k0 (antibody, human IgG1, kappa)
heavy 1: not shown
heavy 2: not shown
light: B1 light
notes: He Ab: the mutation stands only in the GpH7-B3-derived H chain; also called He Ab D270M
B11: GpH7-A5/GpH7-B3 variant D270_18N/GpL16-k0 (antibody, human IgG1, kappa)
heavy 1: not shown
heavy 2: not shown
light: B1 light
notes: He Ab: the mutation stands only in the GpH7-B3-derived H chain; also called He Ab D270N
B12: GpH7-A5/GpH7-B3 variant Q295_02A/GpL16-k0 (antibody, human IgG1, kappa)
heavy 1: not shown
heavy 2: not shown
light: B1 light
notes: He Ab: the mutation stands only in the GpH7-B3-derived H chain; also called He Ab Q295A
B13: GpH7-A5/GpH7-B3 variant D270_19Q/GpL16-k0 (antibody, human IgG1, kappa)
heavy 1: not shown
heavy 2: not shown
light: B1 light
notes: He Ab: the mutation stands only in the GpH7-B3-derived H chain; also called He Ab D270Q
B14: GpH7-A5/GpH7-B3 variant E269_19Q/GpL16-k0 (antibody, human IgG1, kappa)
heavy 1: not shown
heavy 2: not shown
light: B1 light
notes: He Ab: the mutation stands only in the GpH7-B3-derived H chain; also called He Ab E269Q

What follows are binders tested against T1, FcγRIIa H (FcγRIIa type H, His at …) (assay: ratio of He/Con_2aH (FcγRIIa H) to He/Con_2b (FcγRIIb), SPR relative binding).
Procedure: (§1) The heterodimerized antibodies He Abs in which one of the H chains was introduced with an alteration were assayed for their binding activities to each activating FcγR and inhibitory FcγR according to the method described in Example 4. […] The activating FcγRs in FIGS. 26, 27, 28, and 29 are FcγRIa, FcγRIIa (R), FcγRIIa (H), and FcγRIIIa, respectively.
(§2) Analysis of interaction between objective antibody and the FcγR was carried out using Biacore T100 (GE Healthcare). HBS-EP+ (GE Healthcare) was used as the running buffer, and the measurement temperature was set to 25° C. Chips produced by immobilizing the antigen peptide by the amine coupling method to a Series S Sencor Chip CM5 (GE Healthcare), or alternatively, chips produced by allowing preliminarily biotinylated antigen peptides to interact with and immobilize onto a Series S Sensor Chip SA (certified) (GE Healthcare) were used. Antibodies of interest were captured onto an antigen peptide-immobilized chip, and allowed to interact to each FcγR diluted with running buffer. To regenerate and repeatedly use the chip, the antibodies captured on the chip were washed off by reacting 10 mM glycine-HCl, pH 1.5.

Row | He_2aH/2b (IIaH/IIb ratio) | Binder
1 | 0.71 | B1
2 | 0.78 | B2
3 | 0.75 | B3
4 | 0.44 | B4
5 | 0.62 | B5
6 | 0.79 | B6
7 | 0.56 | B7
8 | 0.33 | B8

These binders were tested against T2, FcγRIIb extracellular domain with … (assay: SPR (Biacore), antibody captured via antigen peptide, FcγR as analyte; binding relative to GpH7-A5/GpH7-B3/GpL16-k0 = 100).

Row | He/Con_2b | Binder
9 | 30.5 relative (control = 100) | B9
10 | 48.2 relative (control = 100) | B10
11 | 40.3 relative (control = 100) | B11
12 | 79.7 relative (control = 100) | B12
13 | 48 relative (control = 100) | B13
14 | 44.3 relative (control = 100) | B14

These binders were tested against T4, FcγRIIIa extracellular domain with C-terminal His tag (human, UniProt P08637 17-208) in the same assay as above.
T4 construct: extracellular domain; also called FcgRIIIa; 3a; not shown: His tag at the C terminus
T4 sequence (P08637 17-208): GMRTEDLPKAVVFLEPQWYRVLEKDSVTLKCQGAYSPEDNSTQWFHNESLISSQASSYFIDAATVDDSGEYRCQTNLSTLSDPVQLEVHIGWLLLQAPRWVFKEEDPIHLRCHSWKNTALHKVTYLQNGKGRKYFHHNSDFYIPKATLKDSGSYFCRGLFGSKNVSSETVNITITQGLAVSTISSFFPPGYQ

Row | He/Con_3a | Binder
15 | 38.5 relative (control = 100) | B9
16 | 66.3 relative (control = 100) | B10
17 | 56.5 relative (control = 100) | B11
18 | 106 relative (control = 100) | B12
19 | 81.9 relative (control = 100) | B13
20 | 65 relative (control = 100) | B14

Each binder was assayed against T4, FcγRIIIa extracellular domain with … (assay: ratio of He/Con_3a to He/Con_2b (FcγRIIIa over FcγRIIb), SPR relative binding).
Procedure: as §1, §2

Row | IIIa/IIb (He_3a/2b) | Binder
21 | 1.26 | B9
22 | 1.38 | B10
23 | 1.4 | B11
24 | 1.32 | B12
25 | 1.7 | B13
26 | 1.47 | B14

These binders were tested against T3, FcγRIIb, extracellular domain with … (assay: SPR (Biacore), antibody captured on antigen-peptide chip, FcγR as analyte; GpH7-A5/GpH7-B3/GpL16-k0 = 100).
Procedure: as §1, §2

Row | He/Con_2b (relative binding activity) | Binder
27 | 51.5 % of control | B1
28 | 45.1 % of control | B2
29 | 140 % of control | B3
30 | 57.6 % of control | B4
31 | 181 % of control | B5
32 | 119 % of control | B6
33 | 206 % of control | B7
34 | 102 % of control | B8

The binders below were run against T1, FcγRIIa H (FcγRIIa type H, His at …) in the same assay as above.
Procedure: as §1, §2

Row | He/Con_2aH (relative binding activity) | Binder
35 | 36.7 % of control | B1
36 | 35.2 % of control | B2
37 | 105 % of control | B3
38 | 25.3 % of control | B4
39 | 112 % of control | B5
40 | 94.2 % of control | B6
41 | 114 % of control | B7
42 | 33.3 % of control | B8
